Substitutions are numbered along the chain they refer to. In names and notes the source's numbering stands.
B1: GST-PUB30 (U-box E3 ligase PUB30) (enzyme)
chain: MPMFQPLKRDGLIGFEGGGDGQVLDLDTAVKDGVLGGVNGGGVGVVDEKLDLKKMIKELDLQDIPSVFICPISLEPMQDPVTLCTGQTYERLNIHKWFNLGHLTCPTTMQELWDDTVTPNKTLHHLIYTWFSQKYVLMKKRSEDVQGRAIEILGTLKKAKGQARVHALSELKQIVIAHLMARKTVVEEGGVSVISSLLGPFTSHAVGSEVVAILVSLDLDSDSKSGLMQPAKVSLIVDMLNDGSNETKINCARLIRGLVEEKGFRAELVSSHSLLVGLMRLVKDKRHRNGVSPALRLLKPISVHKQVRSLMVSIGAVPQLVDILPSLDPECLELALFVLDALCTDVEGRVAVKDSANTIPYTVRVLMRVSENCTNYALSILWSVCKLAPEECSPLAVEVGLAAKLLLVIQSGCDAALKQRSAELLKLCSLHYSDTMFISKCKLTRTIQ
B2: MBP-fused full-length ER cytoplasmic domain (MBP-ER_CD) (domain or fragment, Arabidopsis, UniProt Q42371 602-976, looked up)
chain: CRPHNPPPFLDGSLDKPVTYSTPKLVILHMNMALHVYEDIMRMTENLSEKYIIGHGASSTVYKCVLKNCKPVAIKRLYSHNPQSMKQFETELEMLSSIKHRNLVSLQAYSLSHLGSLLFYDYLENGSLWDLLHGPTKKKTLDWDTRLKIAYGAAQGLAYLHHDCSPRIIHRDVKSSNILLDKDLEARLTDFGIAKSLCVSKSHTSTYVMGTIGYIDPEYARTSRLTEKSDVYSYGIVLLELLTRRKAVDDESNLHHLIMSKTGNNEVMEMADPDITSTCKDLGVVKKVFQLALLCTKRQPNDRPTMHQVTRVLGSFMLSEQPPAATDTSATLAGSCYVDEYANLKTPHSVNCSSMSASDAQLFLRFGQVISQNSE
notes: ERECTA (ER) receptor kinase, Arabidopsis, cytoplasmic domain (juxtamembrane domain, kinase domain and C-terminal tail); source: recombinant, expressed and purified; not shown: MBP, N-terminal, kept
B3: GST-BKI1 (BRI1 KINASE INHIBITOR 1) (natural protein, UniProt Q9FMZ0 1-337, looked up)
chain: METNLQQVKNSSQTFSEKQNPKQEASPSPISSTCSSPSHDFSFTISLQPLSSSSKHISPTLRSPSKTTSSYQQTDPFAVDLSPADEIFFHGHLLPLHLLSHLPVSPRTSTGSYNDGFTLPVKDILPDQPTNNNNNTENAITNISTEAKDDNTEDKAEGEIRVKTKPIKSFSLFGLSKWRKGFESNEREQEQQQQKIKKPMSLDLSHAVKKYIRMLFQKRGNGTQFWNRRQTSSYSFSSSLMGPNGNSKTMINGSYNKRDLIRGRRGELFSAPASMRTSPTNSGHLRVSTAGLSSSSGSTSSSSSDSTMEELQAAIQAAIAHCKNSSAVDRDDKVKDS
notes: Tag end from the order of the printed name; source: recombinantly purified; not shown: GST, N-terminal, kept
B4: MBP-ER_CD_(T/S8E), phosphomimetic version (domain or fragment, Arabidopsis, UniProt Q42371 602-976, looked up)
chain: B2 chain with T346E, S349E, S353E, S354E, S356E, S358E, S371E, S374E
notes: ERECTA (ER), Arabidopsis, cytoplasmic domain with the eight phosphosites of the C-terminal tail changed to glutamate; Tag end from the order of the printed name; source: recombinant, purified; not shown: MBP, N-terminal, kept

Assays:
[1] = target: GST-PUB30 (U-box E3 ligase PUB30) (UniProt Q058P4); test: BLI; recombinantly purified GST-BKI1 or GST-PUB30 and MBP-ER_CD variants at seven concentrations (156.25, 312.5, 625, 1,250, 2,500, 5,000 and 10,000 nM); three independent experiments; who was immobilised is in SI Appendix
[2] = target: GST-BKI1 (BRI1 KINASE INHIBITOR 1) (UniProt Q9FMZ0); test: as above
[3] = target: T1, MBP-ER_CD_(T/S8E), phosphomimetic version (Arabidopsis, UniProt Q42371 602-976, Thr947 (T/S8E) | Ser950 (T/S8E) | Ser954 (T/S8E) | Ser955 (T/S8E) | Ser957 …); test: BLI
T1 sequence: B2 chain with T346E, S349E, S353E, S354E, S356E, S358E, S371E, S374E

[4] = target: T2, MBP-ER_CD_(T/S8A), phosphonull version (Arabidopsis, UniProt Q42371 602-976, Thr947 (T/S8A) | Ser950 (T/S8A) | Ser954 (T/S8A) | Ser955 (T/S8A) | Ser957 …); test: BLI
T2 sequence: B2 chain with T346A, S349A, S353A, S354A, S356A, S358A, S371A, S374A

[5] = target: T3, GST-PUB30 (U-box E3 ligase PUB30) (UniProt Q058P4 1-448); test: BLI; recombinantly purified GST-BKI1 or GST-PUB30 and MBP-ER_CD variants at seven concentrations (156.25, 312.5, 625, 1,250, 2,500, 5,000 and 10,000 nM); three independent experiments; who was immobilised is in SI Appendix; details: both partners purified
T3 construct: plant U-box (PUB) E3 ubiquitin ligase PUB30; Tag end from the order of the printed name; source: recombinantly purified; not shown: GST, N-terminal, kept
T3 sequence (looked up): B1 chain

[6] = target: B2; test: as above; details: both partners purified
[7] = target: T4, MBP-ER_CD_(T/S8A), phosphonull version (Arabidopsis, UniProt Q42371 602-976, Thr947 (T/S8A) | Ser950 (T/S8A) | Ser954 (T/S8A) | Ser955 (T/S8A) | Ser957 …); test: as above; details: both partners purified
T4 construct: ERECTA (ER), Arabidopsis, cytoplasmic domain with the eight phosphosites of the C-terminal tail changed to alanine; Tag end from the order of the printed name; source: recombinant, purified; not shown: MBP, N-terminal, kept
T4 sequence (looked up): B2 chain with T346A, S349A, S353A, S354A, S356A, S358A, S371A, S374A

MBP-ER_CD_(ΔCTα-Helix) (domain or fragment)
Kd [1]: 0.805 µM | Kd [2]: 47.7 µM

B1
Kd [3]: 0.194 µM | Kd [4]: 9.5 µM

B2
Kd [5]: 0.393 ± 0.048 µM

B3
Kd [6]: 3.7 ± 0.7 µM | binding result [7]: binds | Kd [3]: 18 µM | Kd [4]: 3.8 µM

B4
binding result [5]: binds
